Measurements as given in article doi:10.1101/2024.12.03.626679 (2024).

Experiments:
[1] = molecular target: T1, Full-length human SMYD2 (residues 1-433), wild type (human, UniProt Q9NRG4 1-433); test: ITC; one-site model (n = 2.01)
[2] = molecular target: T1, Full-length human SMYD2 (residues …); test: ITC; two-site model, KD2 (second site)
SMYD2-F184A = SMYD2-F184A (human, UniProt Q9NRG4 1-433, F184A); test: ITC; one-site model
[3] = molecular target: T1, Full-length human SMYD2 (residues …); test: ITC; two-site model, KD1

T1 sequence (Q9NRG4 whole entry, the tested form may be a part): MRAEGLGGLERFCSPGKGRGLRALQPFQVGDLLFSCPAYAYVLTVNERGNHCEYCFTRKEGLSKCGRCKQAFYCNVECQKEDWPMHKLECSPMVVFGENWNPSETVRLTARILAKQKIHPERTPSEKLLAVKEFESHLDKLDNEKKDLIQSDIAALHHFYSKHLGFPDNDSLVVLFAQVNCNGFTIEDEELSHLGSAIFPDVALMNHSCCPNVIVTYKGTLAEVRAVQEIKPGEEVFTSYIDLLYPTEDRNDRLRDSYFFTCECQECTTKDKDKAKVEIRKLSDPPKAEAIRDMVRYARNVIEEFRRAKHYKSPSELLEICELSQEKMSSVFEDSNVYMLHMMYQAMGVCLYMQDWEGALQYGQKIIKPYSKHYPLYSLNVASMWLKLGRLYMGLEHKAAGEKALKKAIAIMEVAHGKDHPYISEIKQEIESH
Chain of SMYD2-F184A (Q9NRG4 whole entry F184A): as the sequence (Q9NRG4 whole entry, the tested form may be a part) above, with F184A counted along it

Kd [1]: 17.7 µM
Kd [2]: 18.2 µM
Kd (SMYD2-F184A): 41.7 µM
Kd [3]: 17.8 µM
B1: PARP1 peptide (13-residue synthetic peptide, human PARP1 residues 522-534) (peptide)
peptide: RMKLTLKGGAAVD
